This is an account of results in article PMC12632274, “The PA2803-encoded PcrP exhibits a novel non-catalytic function and contributes to polymyxin B resistance in P. aeruginosa” (Journal of Bacteriology, 2025).

The series deals with the molecule itself. Kind of series: cross-linking; 50 µM purified PcrP with 0.02, 0.05, 0.1 and 0.2% glutaraldehyde, 2 min, 20 mM HEPES pH 7.8, 50 mM NaCl, 1% glycerol; stopped with Tris-HCl; 12% SDS-PAGE, Coomassie.

B1: 6xHis-PcrP (PA2803), recombinant, purified from E. coli (natural protein)
chain: MPSSDQLPRFTALLFGLSGGLVDFGARTLSLALLRSHPHSPAEHLRDASLLPFAEAQSFLLRRKPNKSERQRLEQALDEAAGEQAEAIAGAVALLESLDEQRIPYAWQDELPESVCQRLAAPLGRANALIPLAGARPWPAPDGCWQALARLGIERLDGCVLVSAQPRQLQAGLNAGLWTIGLAASGPSCGLSPADWDALGHTERDRLRADATLELYRLGVHSVIDHLGELQPCLHDLAVRRLKGEKP
notes: PcrP (PA2803), Pseudomonas aeruginosa PAO1; cloned NdeI/EcoRI into pSKB3; No removal of the His tag is described; also called 6XHis-PA2803; pAAK001 construct; source: E. coli BL21(DE3), purified (Ni-NTA)
Consider B1, for which the “stoichiometry N” value turned out to be 2.

In general, stoichiometry N refers to the number of molecules, sites or subunits per partner or assembly.
